To fix the notation:
T1: 人IL-18Rβ蛋白 (IL-18Rβ antigen) (human)
T1 chain: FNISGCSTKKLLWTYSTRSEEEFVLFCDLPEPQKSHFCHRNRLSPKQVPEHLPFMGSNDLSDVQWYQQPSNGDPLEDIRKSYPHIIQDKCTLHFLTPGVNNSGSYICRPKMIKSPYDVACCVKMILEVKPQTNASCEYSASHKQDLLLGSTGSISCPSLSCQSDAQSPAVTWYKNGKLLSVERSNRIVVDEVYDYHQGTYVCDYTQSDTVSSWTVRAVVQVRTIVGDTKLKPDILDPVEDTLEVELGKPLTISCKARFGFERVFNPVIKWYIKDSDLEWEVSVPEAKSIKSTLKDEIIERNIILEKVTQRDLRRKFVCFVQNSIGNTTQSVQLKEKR

T2: 人IL-18Rβ蛋白 (IL-18Rβ antigen) (human)
T2 sequence (O95256 whole entry, species assumed, looked up): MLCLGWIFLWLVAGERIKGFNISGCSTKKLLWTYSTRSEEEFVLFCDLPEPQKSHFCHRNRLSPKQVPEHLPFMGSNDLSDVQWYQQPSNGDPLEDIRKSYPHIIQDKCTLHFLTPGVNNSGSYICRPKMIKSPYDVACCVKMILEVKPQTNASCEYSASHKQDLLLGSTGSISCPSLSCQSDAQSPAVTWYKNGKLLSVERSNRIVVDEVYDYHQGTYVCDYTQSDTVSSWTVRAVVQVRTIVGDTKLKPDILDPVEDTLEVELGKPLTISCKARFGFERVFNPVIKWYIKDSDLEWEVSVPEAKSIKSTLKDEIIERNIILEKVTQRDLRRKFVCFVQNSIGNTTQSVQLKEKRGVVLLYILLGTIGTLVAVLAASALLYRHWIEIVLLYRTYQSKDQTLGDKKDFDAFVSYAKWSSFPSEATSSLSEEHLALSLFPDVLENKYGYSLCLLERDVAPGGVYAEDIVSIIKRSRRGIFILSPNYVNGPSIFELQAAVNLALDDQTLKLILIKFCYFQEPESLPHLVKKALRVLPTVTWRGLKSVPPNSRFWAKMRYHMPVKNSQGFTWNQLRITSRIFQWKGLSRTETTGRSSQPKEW

T3: IL-18Rβ on KG-1 cells and human PBMC (human, UniProt O95256 20-599)
T3 sequence (looked up): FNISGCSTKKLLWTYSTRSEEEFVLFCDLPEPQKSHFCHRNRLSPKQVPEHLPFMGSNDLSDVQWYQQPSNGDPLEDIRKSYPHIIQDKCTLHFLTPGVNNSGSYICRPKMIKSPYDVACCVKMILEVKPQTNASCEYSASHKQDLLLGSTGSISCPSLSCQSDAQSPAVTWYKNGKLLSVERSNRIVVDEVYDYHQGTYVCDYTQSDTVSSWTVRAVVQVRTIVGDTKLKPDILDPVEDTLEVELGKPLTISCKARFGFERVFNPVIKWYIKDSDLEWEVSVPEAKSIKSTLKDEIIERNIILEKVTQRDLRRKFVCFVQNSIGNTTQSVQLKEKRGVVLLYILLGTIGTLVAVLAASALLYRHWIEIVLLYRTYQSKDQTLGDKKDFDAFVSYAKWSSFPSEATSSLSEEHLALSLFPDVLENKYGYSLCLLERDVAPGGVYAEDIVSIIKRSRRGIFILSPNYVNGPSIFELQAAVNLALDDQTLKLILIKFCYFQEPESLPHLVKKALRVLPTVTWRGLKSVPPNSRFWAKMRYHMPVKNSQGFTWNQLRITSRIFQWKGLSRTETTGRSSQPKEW

B1: A039 Fab clone (Fab, V domains shown)
VH: EVQLVESGGGLVQPGGSLRLSCAASGINLYYSSMHWVRQAPGKGLEWVASIYSSNGRTYYADSVKGRFTISADTSKNTAYLQMNSLRAEDTAVYYCARSSFSHGYGWYGLDYWGQGTLVTVSS
VL: DIQMTQSPSSLSASVGDRVTITCRASQSVSSAVDWYQQKPGKAPKLLIYSASSLYSGVPSRFSGSRSGTDFTLTISSLQPEDFATYYCQQYGYHDAGLITFGQGTKVEIK
notes: Mutations against C056-WT: VL-A34D/VH-F27I
B2: A036 Fab clone (Fab, V domains shown)
VH: B1 VH with S99A
VL: B1 VL
B3: A035 Fab clone (Fab, V domains shown)
VH: B1 VH with S99A
VL: B1 VL with S31F, D34E
notes: Mutations against C056-WT: VL-S31F/VL-A34E/VH-F27I/VH-S99A
B4: A041 Fab clone (Fab, V domains shown)
VH: B1 VH with I27V, S99A
VL: B1 VL with S31F
B5: A042 Fab clone (Fab, V domains shown)
VH: B1 VH with I27L, S99A
VL: B1 VL with D34E
B6: A037 Fab clone (Fab, V domains shown)
VH: B1 VH with I27L
VL: B1 VL with S31F
notes: Mutations against C056-WT: VL-S31F/VL-A34D/VH-F27L
B7: A040 Fab clone (Fab, V domains shown)
VH: B1 VH with I27L
VL: B1 VL with D34E
B8: A038 Fab clone (Fab, V domains shown)
VH: B1 VH
VL: B1 VL with D34E
notes: Mutations against C056-WT: VL-A34E/VH-F27I
B9: C056-WT full-length antibody (parental antibody WT) (antibody, V domains shown)
VH: B1 VH with I27F
VL: B1 VL with D34A
B10: C056-WT Fab (wild-type anti-IL-18Rβ antibody) (Fab, V domains shown)
VH: B1 VH with I27F
VL: B1 VL with D34A
B11: A039 full-length IgG (antibody, V domains shown)
VH: B1 VH
VL: B1 VL
B12: A037 full-length IgG (antibody, V domains shown)
VH: B1 VH with I27L
VL: B1 VL with S31F
B13: A035 full-length IgG (antibody, V domains shown)
VH: B1 VH with S99A
VL: B1 VL with S31F, D34E

Numbering of substitutions follows the chain as printed. Names may count otherwise.

The target of one assay is T1, 人IL-18Rβ蛋白 (IL-18Rβ antigen). Briefly: SPR (Biacore 8K), Fab captured; ratio of kd of C056-WT to kd of the clone. For orientation: Surface plasmon resonance follows binding to a sensor surface in real time, without labels.
As for B1, the “比值(kd)” value worked out at 39.7.
On to B2, for which the “比值(kd)” value was determined as 17.2.
Turning to B3, the “比值(kd)” value was 37.3.
Take B4: the “比值(kd)” value stood at 18.7.
Regarding B5, the “比值(kd)” value turned out to be 11.2.
For B6, the “比值(kd)” value was 1190.
Consider B7, for which the “比值(kd)” value was determined as 14.9.
With B8, the “比值(kd)” value stood at 21.

In a further assay the target is T2, 人IL-18Rβ蛋白 (IL-18Rβ antigen) (human). Description: SPR (Biacore 8K), antibody captured on protein A chip, human IL-18Rβ 6.25-400 nM injected, 25°C.
B9: the Kd (in general, the free concentration of one partner at which half of the binding sites on the other are occupied at equilibrium, for simple one-to-one binding) turned out to be 15.8 nM. This lies in the double-digit nanomolar range.

The target is the same in a further assay. Briefly: SPR (Biacore 8K), Fab captured; ratio of kd, the reference itself.
Consider B10, for which the 比值(kd) was 1.

Another assay addresses T1, 人IL-18Rβ蛋白 (IL-18Rβ antigen). Description: SPR (Biacore 8K), secreted Fab captured on SASA sensor, antigen injected, 1:1 fit.
With B1, the affinity, expressed as Kd, was 0.26 nM; the dissociation rate constant (koff) (in general, the first-order rate constant of dissociation) amounted to 3e-05 s⁻¹; the association rate constant (kon) – broadly, the rate constant with which the complex forms – came to 115000 M⁻¹ s⁻¹.
B2 displayed a Kd of 0.648 nM, an off-rate (koff) of 6.91e-05 s⁻¹ and an on-rate constant (kon) of 107000 M⁻¹ s⁻¹.
The matching figures for B3: 0.224 nM, 3.19e-05 s⁻¹ and 143000 M⁻¹ s⁻¹.
B4: the Kd was 0.415 nM, the koff worked out at 6.35e-05 s⁻¹ and the on-rate (kon) was determined as 153000 M⁻¹ s⁻¹.
The matching figures for B5: 1.34 nM, 0.000106 s⁻¹ and 79000 M⁻¹ s⁻¹.
The matching figures for B6: 0.00847 nM, 1e-06 s⁻¹ and 118000 M⁻¹ s⁻¹.
Consider B7, for which the affinity, expressed as Kd, was 1.04 nM; the koff worked out at 8e-05 s⁻¹; the kon stood at 77000 M⁻¹ s⁻¹.
As for B8, the Kd came out at 0.725 nM, the off-rate constant (koff) was 5.67e-05 s⁻¹ and the kon turned out to be 78200 M⁻¹ s⁻¹.

In a further assay the target is T3, IL-18Rβ on KG-1 cells and human PBMC. Description: cell-based or functional assay.
As for B11, the “IC50(nM), inhibition of IL-18-stimulated IFN-γ release in KG-1 cells” value (“IC50(nM), inhibition” below) came out at 0.59 nM and the “potency relative to WT antibody, KG-1 IFN-γ assay” value (shortened to “potency relative to WT antibody”) is around 20 fold.
Turning to B12, the “IC50(nM), inhibition” value was determined as 0.27 nM and the “potency relative to WT antibody” value was around 20 fold.
With B13, the “IC50(nM), inhibition” value came out at 0.26 nM and the “potency relative to WT antibody” value is around 20 fold.
As to B9, the “IC50(nM), inhibition” value was 8.14 nM.

The target of another assay is T2, 人IL-18Rβ蛋白 (IL-18Rβ antigen) (human). Description: SPR (Biacore 8K), secreted Fab captured on SASA sensor, antigen injected, 1:1 fit.
Consider B10, for which the equilibrium dissociation constant (Kd) turned out to be 17.8 nM, the koff worked out at 0.00119 s⁻¹ and the kon is 66600 M⁻¹ s⁻¹.

The record behind these values is patent CN116554322A (HEJING MEDICAL TECH SHANGHAI CO LTD, dated 2023).
